Here are results for two molecules from patent publication US20200262927A1 (OXFORD BIOTHERAPEUTICS, published 2020).

Experiment [1] has as its target human CRTAM on in vitro activated human T cells (human) (UniProt O95727). Nature of the experiment: flow cytometry on in vitro activated human T cells, MFI against antibody concentration. On the technique in general: Flow cytometry measures light scatter and fluorescence of single cells or particles in a stream.
The target of experiment [2] is T1, human CRTAM on in vitro activated human T cells (human, UniProt O95727 18-393).
T1 sequence: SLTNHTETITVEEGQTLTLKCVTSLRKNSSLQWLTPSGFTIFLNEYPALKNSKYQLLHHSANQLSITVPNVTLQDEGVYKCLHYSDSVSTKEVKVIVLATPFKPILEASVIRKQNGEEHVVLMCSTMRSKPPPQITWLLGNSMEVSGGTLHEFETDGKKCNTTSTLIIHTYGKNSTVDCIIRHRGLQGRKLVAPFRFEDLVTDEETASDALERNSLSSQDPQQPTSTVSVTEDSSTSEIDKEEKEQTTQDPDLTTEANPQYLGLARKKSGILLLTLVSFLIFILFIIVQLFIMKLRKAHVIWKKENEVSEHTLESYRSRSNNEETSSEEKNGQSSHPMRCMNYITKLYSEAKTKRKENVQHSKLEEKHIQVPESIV
Nature of the experiment: flow cytometry on in vitro activated human T cells, goat anti-rat IgG-RPE detection, MFI against antibody concentration. The protocol: Following this the cells were cultured with anti-CD3/anti-CD28 activation beads (Cat #11132D, Thermo Fisher, Waltham, Mass.) for 24 hours before FACS analysis (data not shown).
Fluorescence-activated cell sorting (FACS) analysis was performed in 96-well plate format according to standard protocols. Activated T cells were prepared as above. All subsequent steps of the staining protocol were carried out on ice with ice-cold reagents except for the centrifugation steps which was done at RT. Three-fold serial dilutions of the antibodies, were prepared in FACS buffer to give a 12-point titration curve with final concentrations ranging from 133 nM to 1 pM. The corresponding hybridoma supernatants, isotype controls, and positive control antibodies were diluted in ice cold FACS buffer to be tested at a single point with a final concentration of 30 nM. The antibody dilutions were each dispensed (100 μL/well) into one well for each cell line. […] The final cell pellets were re-suspended in […]+50 μl of 4% paraformaldehyde and fixed until ready to be acquired in a Flow cytometer. […] Geometric mean fluorescence intensity (GMFI or Geo Mean) of each sample was determined using a Guava Easycyte Plus high-throughput flow cytometer (96 well plates) and raw data were analyzed using the Guava Cytosoft Pro Software Module, version 2.2.2 (Millipore, Billerica Mass.). […]

A word on the EC50 (read off the curve): it is the concentration giving half of the maximal effect. In turn, “commercially available anti-CRTAM antibody CR24.1 (BioLegend)” gave a concentration giving a half-maximal response (EC50 (read off the curve)) in experiment [1] of 2 µg/mL.

B1: 5A11 parental rat monoclonal anti-CRTAM antibody (antibody, V domains shown)
VH: AVQLVESGGGLVQPKESLKISCAASGFTFSDAAMYWVRQAPGKGLEWVARIRTKTNNYAAHYVESVKGRFTVSRDDSKSMVYLQMDNLKTDDTAMYYCTSVPQGTQDYWGQGVMVTVSS
VL: SYELIQPPSASVTLGNTVSLTCVGDELSKRYVQWSQQKPDKTIVSVIYKDSERPSGISDRFSGSSSGTTATLTIHGTLAEDEADYYCLSTYSDDNLPVFGGGTKLTVL
notes: Rat monoclonal from a hybridoma, detected with goat anti-rat IgG; also called antibody 5A11; BUH-5A11-F2
For the molecule B1, the “EC50 (read off the curve)” value in experiment [2] is approximately 0.02 µg/mL.
